Experiment [1] concerns the target T1, recombinant human ACE2 (Angiotensin-converting enzyme 2) (human, UniProt Q9BYF1 18-740).
T1 construct: Bought recombinant protein
The experiment in a line: ELISA: ACE2 immobilised at 1 µg/mL, Neumifil titrated, detected with rabbit anti-Neumifil and HRP anti-rabbit IgG, 4PL fit. Background: In an ELISA, binding on a coated surface is turned into a signal by an enzyme label.

Experiment [2] addresses T2, SARS-CoV-2 Spike S1 protein, Wuhan (Wuhan-Hu-1, Dec 2019 isolate) (SARS-CoV-2, UniProt P0DTC2 16-685).
T2 construct: domain: S1; also called original Spike protein
The experiment in a line: ELISA: Spike S1 immobilised at 1 µg/mL, Neumifil titrated, detected with rabbit anti-Neumifil and HRP anti-rabbit IgG, 4PL fit.

Results on 1 molecule are retold here after US20230125561A1 (PNEUMAGEN, published 2023).

T1 sequence (Q9BYF1 18-740 limits assumed): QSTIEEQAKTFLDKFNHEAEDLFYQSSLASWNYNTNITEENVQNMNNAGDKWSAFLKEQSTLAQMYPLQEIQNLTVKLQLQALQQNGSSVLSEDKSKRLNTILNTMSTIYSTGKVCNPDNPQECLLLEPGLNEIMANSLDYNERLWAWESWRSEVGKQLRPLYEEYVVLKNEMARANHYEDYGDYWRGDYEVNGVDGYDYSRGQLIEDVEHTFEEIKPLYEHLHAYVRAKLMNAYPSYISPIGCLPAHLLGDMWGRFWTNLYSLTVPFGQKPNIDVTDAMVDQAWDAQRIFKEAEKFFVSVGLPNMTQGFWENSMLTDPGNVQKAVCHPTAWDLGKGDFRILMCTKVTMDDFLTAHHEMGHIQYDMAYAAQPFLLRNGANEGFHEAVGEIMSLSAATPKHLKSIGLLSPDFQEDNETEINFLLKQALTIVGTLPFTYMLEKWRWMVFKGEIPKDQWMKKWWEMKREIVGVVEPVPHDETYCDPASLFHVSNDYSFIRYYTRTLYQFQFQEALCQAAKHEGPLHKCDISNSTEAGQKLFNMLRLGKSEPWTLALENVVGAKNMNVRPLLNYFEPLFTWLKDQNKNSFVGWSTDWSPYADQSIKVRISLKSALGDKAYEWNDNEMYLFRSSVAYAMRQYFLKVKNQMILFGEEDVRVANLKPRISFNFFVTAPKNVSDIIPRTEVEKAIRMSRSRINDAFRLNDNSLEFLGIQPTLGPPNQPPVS

B1: Neumifil (HEX17: trimeric (hexavalent) form based on S. pneumoniae CBM40) (designed binder)
chain: GAMVIEKEDVETNASNGQRVDLSSELDKLKKLENATVHMEFKPDPKAPAFYNLFSVSSATKKDEYFTMAVYNNTATLEGRGSDGKQFYNNYNDAPLKVKPGQWNSVTFTVEKPTAELPKGRARLYVNGGLSRTSLRSGNFIKDMPDVTHVQIGATKRANNTVWGSNLQIRNLTVYNRALTPEEVQKRSGGGSGVIEKEDVETNASNGQRVDLSSELDKLKKLENATVHMEFKPDPKAPAFYNLFSVSSATKKDEYFTMAVYNNTATLEGRGSDGKQFYNNYNDAPLKVKPGQWNSVTFTVEKPTAELPKGRARLYVNGGLSRTSLRSGNFIKDMPDVTHVQIGATKRANNTVWGSNLQIRNLTVYNRALTPEEVQKRSGGSLGVPDFESDWFDVSSNSLYTLSHGLQRSPRRVVVEFARSSSPSTWNIVMPSYFNDGGHKGSGAQVEVGSLNIKLGTGAAVWGTGYFGGIDNSATTRFATGYYRVRAWI
notes: also called CBM2
What is called EC50 is the concentration needed to bring the measured effect to its halfway point. Turning to B1, the half-maximal effective concentration (EC50) in experiment [1] amounted to 0.235 µg/mL; in experiment [2], 0.174 µg/mL.
